These results are taken from paper PMC8456996.

One data set concerns the target TRIM25 PRY/SPRY domain (UniProt Q14258 439-630). Kind of data set: NMR HSQC titration.
For data set [1], the target named is T1, Thioredoxin (hsTXN) (Homo sapiens, UniProt P10599 1-105).
T1 sequence: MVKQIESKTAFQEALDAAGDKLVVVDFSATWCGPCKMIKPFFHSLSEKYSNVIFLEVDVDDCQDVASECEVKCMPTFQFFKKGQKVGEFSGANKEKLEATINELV
The experiment in a line: NMR HSQC titration.

For data set [2], the target named is T2, End binding protein 1 (dmEB1) (Drosophila melanogaster, UniProt Q0E9N1 1-291).
T2 sequence: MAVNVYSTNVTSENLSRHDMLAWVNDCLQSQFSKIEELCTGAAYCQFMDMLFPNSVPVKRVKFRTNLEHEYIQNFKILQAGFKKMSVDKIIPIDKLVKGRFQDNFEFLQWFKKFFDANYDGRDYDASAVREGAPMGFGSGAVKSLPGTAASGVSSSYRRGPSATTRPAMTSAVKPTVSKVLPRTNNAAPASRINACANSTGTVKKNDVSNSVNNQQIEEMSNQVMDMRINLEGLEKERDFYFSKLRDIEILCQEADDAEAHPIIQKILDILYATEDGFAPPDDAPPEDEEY
Kind of data set: EMSA.

In data set [3] the target is T1, Thioredoxin (hsTXN). The experiment in a line: NMR HSQC titration. This is another data set of the same source.
For data set [4], the target named is T3, Syntrophin-beta-1 PDZ domain (Homo sapiens, UniProt Q13884 111-196).
T3 sequence: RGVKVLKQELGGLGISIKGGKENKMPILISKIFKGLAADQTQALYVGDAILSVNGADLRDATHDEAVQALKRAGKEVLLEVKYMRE
The experiment in a line: NMR HSQC titration.

The target in data set [5] is T3, Syntrophin-beta-1 PDZ domain. The experiment in a line: NMR HSQC titration. The source holds these as a separate data set.
Data set [6] addresses FPR1 (FK506-binding protein 1) (Saccharomyces cerevisiae, UniProt P20081 1-114). The experiment in a line: NMR HSQC titration.

Read-outs that look alike come from different tables or passages of the source.

TRIM25 PRY/SPRY domain, sequence (Q14258 439-630): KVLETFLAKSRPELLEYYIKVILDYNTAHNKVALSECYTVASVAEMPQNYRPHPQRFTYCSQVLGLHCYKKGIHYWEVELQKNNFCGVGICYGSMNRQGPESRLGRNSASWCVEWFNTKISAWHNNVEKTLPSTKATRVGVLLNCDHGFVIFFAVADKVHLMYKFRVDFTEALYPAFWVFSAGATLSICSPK
FPR1 (FK506-binding protein 1), sequence (P20081 whole entry): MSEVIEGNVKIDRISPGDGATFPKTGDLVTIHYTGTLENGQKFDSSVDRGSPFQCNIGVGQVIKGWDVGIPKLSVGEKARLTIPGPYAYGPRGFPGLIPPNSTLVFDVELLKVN

As to UUUUUUUUUUUUUUU (ssRNA) [poly(U) 15-mer], the binding result with TRIM25 PRY/SPRY domain is on record as “binds”.
Regarding AAAAAAAA (ssRNA) [poly(A) 8-mer], the binding result in the data set with Thioredoxin (hsTXN) [1] was “no binding”.
With UUUUUUUUUUUUUUUUUUUUUUUUU (ssRNA) [poly(U) 25-mer, 32P probe], the binding result in data set [2] is on record as “binds”.
UUUUUUUU (ssRNA) [poly(U) 8-mer]: the binding result (with Thioredoxin (hsTXN) [3]; in data set [4]) was “no binding” throughout.
Take CCCCCCCC (ssRNA) [poly(C) 8-mer]: the binding result (in the data set with Thioredoxin (hsTXN) [1]; in data set [5]) was “no binding” throughout.
Consider UUUUUUUUU (ssRNA) [poly(U) 9-mer], for which the binding result in data set [6] was “no binding”.
